B1: Human activin A (ligand, UniProt P08476 311-426, looked up)
chain: GLECDGKVNICCKKQFFVSFKDIGWNDWIIAPSGYHANYCEGECPSHIAGTSGSSLSFHSTVINHYRMRGHSPFANLKSCCVPTKLRPMSMLYYDDGQNIIKKDIQNMIVEECGCS
notes: human activin A (inhibin beta A chain), purchased from R&D Systems; source: bought: R&D Systems
B2: Soluble human ActRIIB-hFc (Fc fusion, UniProt Q13705 19-133, looked up)
chain: SGRGEAETRECIYYNANWELERTNQSGLERCEGEQDKRLHCYASWRNSSGTIELVKKGCWLDDFNCYDRQECVATEENPQVYFCCCEGNFCNERFTHLPEAGGPEVTYEPPPTAP
notes: signal peptide in the construct; extracellular domain (1-133) of the human ActRIIB receptor (ACVR2B), in-frame fusion with human IgG1 Fc-domain; also called ActR2B-hFc; source: produced in Chinese hamster ovary (CHO) cells
B3: Human growth and differentiation factor 11 (ligand, UniProt O95390 299-407, looked up)
chain: NLGLDCDEHSSESRCCRYPLTVDFEAFGWDWIIAPKRYKANYCSGQCEYMFMQKYPHTHLVQQANPRGSAGPCCTPTKMSPINMLYFNDKQQIIYGKIPGMVVDRCGCS
notes: human growth and differentiation factor 11 (GDF11), purchased from R&D Systems; also called GDF11; GDF-11; source: bought: R&D Systems

Assay [1] deals with B2. As to the kind of experiment: SPR; Biacore T200, CM5 chip, 25 °C; ActRIIB-hFc captured through its Fc (32-39 RU) by immobilised goat anti-human Fcγ antibody; ligands injected at 40 to 0.78 nM; HBS-T (10 mM HEPES, 150 mM NaCl, 3 mM EDTA, 0.05 % P20, 10 mg/ml carboxymethyldextran, 0.5 mg/ml BSA, pH 7.4); global fit to a 1:1 model. The note with it: both partners purified.
For assay [2], the target named is B3. Nature of the assay: cell-based or functional assay.
In assay [3] the target is B1. Nature of the assay: cell-based or functional assay.
For a further assay, the target named is T1, Human myostatin (human, UniProt O14793 267-375).
T1 sequence (looked up): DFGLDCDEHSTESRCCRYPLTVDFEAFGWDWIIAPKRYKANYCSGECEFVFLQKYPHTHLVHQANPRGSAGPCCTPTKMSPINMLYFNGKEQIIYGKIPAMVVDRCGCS
Nature of the assay: cell-based or functional assay.

Assay [4] has as its target B1. Nature of the assay: SPR; Biacore T200, CM5 chip, 25 °C; ActRIIB-hFc captured through its Fc (32-39 RU) by immobilised goat anti-human Fcγ antibody; ligands injected at 40 to 0.78 nM; HBS-T (10 mM HEPES, 150 mM NaCl, 3 mM EDTA, 0.05 % P20, 10 mg/ml carboxymethyldextran, 0.5 mg/ml BSA, pH 7.4); global fit to a 1:1 model. The following applies: both partners purified. (In general: SPR reads the build-up and loss of mass on a sensor chip optically.)

What is called Kd is the concentration at which binding is half-saturated. Usually koff stands for a measure of how fast the partners let go of each other. A high value points to fast dissociation. A word on the kon: it is the rate constant with which the complex forms.

Molecule B1 displayed a T1/2 in assay [1] of 2.43 h.
On to B2, for which the “IC50 of inhibition of Smad2/3 luciferase activity in A204/Smad2/3/Luc cells stimulated with a constant 0.4 nM GDF11” value in assay [2] is 0.46 nM. For the same molecule, the “IC50 of inhibition of Smad2/3 luciferase activity in A204/Smad2/3/Luc cells stimulated with a constant 0.4 nM activin A” value in the assay with Human activin A [3] worked out at 1.2 nM. Further, in the assay with Human myostatin, the “IC50 of inhibition of Smad2/3 luciferase activity in A204/Smad2/3/Luc cells stimulated with a constant 1 nM myostatin” value is 0.57 nM. In the assay with Human activin A [4], the affinity, expressed as Kd, was 0.0866 nM; the koff is 7.94e-05 s⁻¹; the on-rate constant (kon) stood at 917000 M⁻¹ s⁻¹.
In assay [1], B3 displayed an equilibrium dissociation constant (Kd) of 0.014 nM, a T1/2 of 1.87 h, a koff of 0.000103 s⁻¹ and a kon of 7.38e+06 M⁻¹ s⁻¹.

Source of the values: article PMC4600334, “Myostatin blockade with a fully human monoclonal antibody induces muscle hypertrophy and reverses muscle atrophy in young and aged mice” (Skeletal Muscle, 2015).
